Data from the DeepSol protein solubility set.

experiment: soluble on expression in E. coli; label from the status in PepcDB or PDB records

Sequence	soluble on expression in E. coli
MIRFCSLYSGSSGNAIFLSTGKTKILIDAGLSGKKITEALVSIGEKPSELSAILVSHEHSDHIKGAGIISRKYDVPIYANENTWAAMENLIGPVSVKNKMYFNTGREFEIGDVIINPFPIPHDAVEPVGFNFFVENSKITTATDIGHMNRELLEYIEGSDFLLIESNHDIEMLKVGPYPWPLKKRILGDKGHLSNEMAGKVVAHLAERGTRCFMLGHLSKENNFPELAYETVRNILKERNIDIERDIKLSVALRDKVGQVVEILEHHHHHH	not soluble
MIRGLRQIEPYVAGVQPAERKMIKLNTNENAYGASPKVREALANFDVDNLRKYSTLEQADLRAALANNLKVKPEQLMIANGSDDVLSIAFLAFFNNDEPVLFPDLTYGFYKVWADLYRVNYHEIPLAEDFTINTEDYLADNGGIILTNPNAPTGIYKPLNEIEKLLKANQDTVVIIDEAYISFGGQSALSLLNKYNNLVITRTFSKDAALAGLRVGYAIANEPLIAVMNAVKHSINPYSVDLLAERLATAAVEDWSYYQENAKKIQKTRAWFSEQLVKQGFDVLPSQANFVLTKPHDLATAKLFEELEARKIYVRYFPKVERIKDYLRISMGTQEEMEEVVKAIEEIRG	soluble
MIRKALLFVEKNETWKKELQIAKSVETVRKRLGQSNLNACSPRKVPLLTVKHVAKQFEYDKIHKDGPVEKWRNIFWSDESKIVLLGGKGSRSYVRRPPRTEYNPRYTFKKFKNCLKGWAFCCLEHHHHHHH	not soluble
MIRQLSLKDYEGVAGSALIDEIRSLGESLQGYNVRHINSTIIGGGVAEILSSLVPLMEDVGLTVNWEVLAGTTEFFHTTKLFHNGMHGQPVNITGEMLENYLAIAQKNQNLLDGDADLVVIHDQQPLGLTAFRGRTRGRWLWYCHVDPRYAVPEVWYFLAPMVATCDAAVFHLPEYARDLPVLQYFMPPAIDPLSDKLEHHHHHH	soluble
MIRRENRLRREFIFRKSLEEKQKSLEEKREKIRNALENNTKIDYNLRKDAIELAKGSDWGGQQYETDSEYRWAGAQDPKIVITTSRDPSSRLKMFAKEMKLIFPNAQRINRGHYDVKQVVQASKAQDSTDLIIFTETRGNPDGMLVCHLPFGPTAFFSMANVVMRHDIPNCGTMSEQYPHLIFDNLNSKLGHRFTTILKHLFPVPKPDSKRIITFSNSEDYISFRHHVYKTENDGEVELTEAGPRFELKPYQIKLGTLETLAAAEDEWVLRSYTNTARKRTFLSISRADDDE	not soluble
MIRSSKRSLSRDLVRFVQYVDDCVVKRYGFVVKSGSGIKLNGKKPQGFGTSSEDEDNNADMSDDSEEVPVSSIDKRKVASSKSRTGVVIEGDVVKPPVMKFVVLDKNRNVCQVYGNRHDLTSSAEDDSVDGDEETLVMSRDNGRKQSLKARNGVSVKGGGGKTTRVVKTVSFDENGNVCKVYGDTHDLTSSAEDDDSVDVGEETLVMCRDEGKRRSSKTGSRVLVKGSGGKTNRVVKTVSFDENGNVYKAYGDTPESSIISEEDDSTSGSNEGNGEEKGNVNEVEEIKYVPKENESFEEEEEKETDSENEVSSSEGSEGDKRVTKKEVQHQKGSLMFSPPLPLKMEP	soluble
MISIPVAQQQKLPRLVLPRVYGFPPNRETLGGTAYLIVENDGNTLIDSPPWTDGSQHWLREQGGVKRLILTHRGAIARVRAIQDTFDCEVMIHAQEAYLLPQVTVTPFNHHLAIGETLEILWTPGHSPGSACVYWSCQGGVLFTGRHLLPTPTGELAPIKTATTFHWPRQLRSVEALKAFCRQKSLSYLCPGANMGFLRGTLAIANAQAVLQGLSVDNLLCDKFLEHHHHHH	not soluble
MISTRFLRPSVSIFGFGIKSSMSSRAPPKALLQDMVVPPRQLFGPGPSNMADSIAETQSRNLLGHLHPEFVQIMADVRLGLQYVFKTDNKYTFAVSGTGHSGMECAMVNLLEPGDKFLVVEIGLWGQRAADLANRMGIEVKKITAPQGQAVPVEDIRKAIADYKPNLVFVCQGDSSTGVAQPLETIGDACREHGALFLVDTVASLGGTPFAADDLKVDCVYSATQKVLNAPPGLAPISFSDRAMEKIRNRKQRVASFYFDAIELGNYWGCDGELKRYHHTAPISTVYALRAALSAIAKEGIDESIQRHKDNAQVLYATLKKHGLEPFVVDEKLRLPCLTTVKVPEGVDWKDVAGKMMTNGTEIAGGLGATVGKIWRIGTFGINSNSTKIENVVELLSKSIGEKSK	not soluble
MISVCIATYNGEKYLAEQLDSILLQVSEEDELIISDDGSTDHTLEILRTYAANYPQIQLLQGPGQGVIANFAFALTHTKGEVIFLADQDDVWLPNKVTTVTEYFETHPDIQVVISDLKIVDADLQVTNPSYFKFRKVKPGFWRNAIKSGYIGAGMAFRQEMKNVILPIPPEVPMHDMWIGLLAARKKQTGLIKEPLVLYRRHGANVSPIITKTSFQQKLNWRVNLLKALHQRLKEQRLEHHHHHH	soluble
